Test results reported in patent publication US20240010735A1 (EISAI R AND D MANAGEMENT, published 2024).

Experiments:
[1] = target: T1, human EphA4 extracellular region-SEAP-His protein (human, UniProt P54764 20-547); assay: competition ELISA; captured human EphA4 extracellular region-SEAP-His, competitor biotinylated human EphrinA5-Fc chimera (0.7 nM)
T1 construct: also called human EphA4 extracellular region-SEAP-His 10; not shown: secretory alkaline phosphatase (SEAP); histidine tag
Description: Anti-alkaline phosphatase antibodies (Thermo […]) were coated onto the wells of a 96-well plate (Nuns). After incubating at 4° C. overnight, the wells were blocked at room temperature for 1 hour by 1% Block Ace (DS Pharma Biomedical). After washing 3 times with 0.05% Tween 20/PBS (Thermo […]), human EphA4 extracellular region-SEAP-His protein was added to the wells (final concentration 10 nM), and incubated at room temperature for 1 hour. After washing 3 times, the ligand and serially diluted antibody A (0, 0.003, 0.01, 0.03, 0.1, 0.3, 1, 3, 10, 30, 100, 300, 1000, 3000 nM) were supplemented to the wells. Note that biotinylated human EphrinA5-Fc chimera (R&D Systems, final concentration 0.7 nM) and biotinylated human EphrinB3-Fc chimera (R&D Systems, final concentration 2.3 nM) were employed as ligands. After incubating at room temperature for 1 hour and washing 3 times, horseradish peroxidase-labeled streptavidin (GE Healthcare) was added, and incubated at room, temperature for 1 hour. After washing 3 times, TMBZ (3,3′,5,5 ′-tetramethylbenzidine, Sigma) solution was added to the wells, and incubated at room temperature for 2-5minutes. An equal amount of quenching solution (1 N H₂SO₄, Wako Pure Chemicals) was added to the wells, and absorbance at 450 nm was read by a microplate reader (Molecular Devices or PerkinElmer). […]

[2] = target: T2, mouse EphA4 extracellular region-SEAP-His protein (mouse); assay: competition ELISA; captured mouse EphA4 extracellular region-SEAP-His, competitor biotinylated mouse EphrinA1-Fc chimera (6 nM)
T2 construct: also called mouse EphA4 extracellular region-SEAP-His 10
Description: (§1) Anti-alkaline phosphatase antibodies (Thermo […]) were coated onto the wells of a 96-well plate (Nunc). After incubating at 4° C. overnight, the wells were blocked at room temperature for 1 hour by 1% Block Ace (DS Pharma Biomedical). After washing 3 times with 0.02% Tween 20/PBS (Thermo […]), mouse EphA4 extracellular region-SEAP-His protein was added to the wells (final concentration 10 nM), and incubated at room temperature for 1 hour. After washing 3 times, the ligand and antibody A (0, 0.003, 0.01, 0.03, 0.1, 0.3, 1, 3, 10, 30, 100, 300, 1000, 3000 nM) were supplemented to the wells. Note that biotinylated mouse EphrinA1-Fc chimera (R&D Systems, final concentration 6 nM) and biotinylated mouse EphrinB2-Fc chimera (R&D Systems, final concentration 2.5 nM) were employed as ligands. After incubating at room temperature for 1 hour and washing 3 times, horseradish peroxidase-labeled streptavidin (GE Healthcare) was added, and incubated at room temperature for 1 hour. After washing 3 times, TMBZ (3,3′, 5,5′-tetramethylbenzidine, Sigma) solution was added to the wells, and incubated at room temperature for 2 minutes. An equal amount of quenching solution (1 N H₂SO₄, Wako Pure Chemicals) was added to the wells, and absorbance at 450 nm was read by a microplate reader (PerkinElmer). […]

[3] = target: T1, human EphA4 extracellular …; assay: competition ELISA; captured human EphA4 extracellular region-SEAP-His, competitor biotinylated human EphrinB3-Fc chimera (2.3 nM)
[4] = target: T2, mouse EphA4 extracellular …; assay: competition ELISA; captured mouse EphA4 extracellular region-SEAP-His, competitor biotinylated mouse EphrinB2-Fc chimera (2.5 nM)
Description: as §1

T2 sequence (chain, as listed by the source limits assumed): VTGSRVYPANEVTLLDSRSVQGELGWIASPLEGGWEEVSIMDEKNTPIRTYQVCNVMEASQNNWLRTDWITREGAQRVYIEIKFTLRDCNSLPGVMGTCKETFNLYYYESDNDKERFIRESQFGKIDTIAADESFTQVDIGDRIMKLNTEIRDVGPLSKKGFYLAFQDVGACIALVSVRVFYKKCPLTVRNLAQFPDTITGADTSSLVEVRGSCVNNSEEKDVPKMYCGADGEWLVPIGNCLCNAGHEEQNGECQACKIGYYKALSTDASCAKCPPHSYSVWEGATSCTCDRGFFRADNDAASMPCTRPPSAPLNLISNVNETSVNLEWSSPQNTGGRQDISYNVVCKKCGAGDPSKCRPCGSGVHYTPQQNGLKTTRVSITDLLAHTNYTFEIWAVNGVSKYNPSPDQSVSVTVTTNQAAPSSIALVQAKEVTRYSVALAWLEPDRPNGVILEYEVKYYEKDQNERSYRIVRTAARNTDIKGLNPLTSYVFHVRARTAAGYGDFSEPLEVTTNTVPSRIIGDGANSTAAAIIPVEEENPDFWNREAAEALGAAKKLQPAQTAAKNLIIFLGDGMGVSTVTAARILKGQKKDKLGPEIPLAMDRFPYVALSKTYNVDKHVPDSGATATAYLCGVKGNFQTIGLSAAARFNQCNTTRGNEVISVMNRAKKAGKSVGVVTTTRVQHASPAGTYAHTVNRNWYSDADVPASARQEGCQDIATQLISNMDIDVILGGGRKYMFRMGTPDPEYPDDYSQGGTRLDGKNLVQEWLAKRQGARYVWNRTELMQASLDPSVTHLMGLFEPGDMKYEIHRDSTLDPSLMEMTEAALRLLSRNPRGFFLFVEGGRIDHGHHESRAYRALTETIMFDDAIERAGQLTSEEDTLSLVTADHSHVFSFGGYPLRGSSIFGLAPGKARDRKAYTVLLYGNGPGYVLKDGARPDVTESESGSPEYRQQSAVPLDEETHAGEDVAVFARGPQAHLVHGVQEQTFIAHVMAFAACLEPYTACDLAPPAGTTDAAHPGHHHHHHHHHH
T1 sequence (P54764 20-547): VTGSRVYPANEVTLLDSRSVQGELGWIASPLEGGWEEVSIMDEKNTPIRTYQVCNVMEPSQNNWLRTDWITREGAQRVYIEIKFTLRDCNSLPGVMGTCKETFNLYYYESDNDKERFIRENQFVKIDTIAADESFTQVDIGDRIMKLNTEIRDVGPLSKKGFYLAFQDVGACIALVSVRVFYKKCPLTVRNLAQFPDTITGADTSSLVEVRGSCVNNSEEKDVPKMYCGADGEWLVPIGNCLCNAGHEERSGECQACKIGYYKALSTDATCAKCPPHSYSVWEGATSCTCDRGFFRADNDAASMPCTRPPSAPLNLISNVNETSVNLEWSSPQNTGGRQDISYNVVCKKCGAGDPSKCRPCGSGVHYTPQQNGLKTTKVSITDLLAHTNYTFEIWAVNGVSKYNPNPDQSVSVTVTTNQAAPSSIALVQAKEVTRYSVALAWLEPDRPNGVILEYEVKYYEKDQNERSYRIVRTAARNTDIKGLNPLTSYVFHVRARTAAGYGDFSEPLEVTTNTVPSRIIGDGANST

B1: humanized anti-EphA4 monoclonal antibody (antibody B) (antibody, human IgG2, V domains shown)
VH: QVQLVESGGGVVQPGRSLRLSCAVSGFSLTRFGVHWVRQAPGKGLEWVAVIWRGGSTDYNAAFMSRLTISKDNSKNTVYLQMNSLRAEDTAVYYCAKESLFGVYYDYGYYSMDYWGQGTTVTVSS
VL: DIQMTQSPSSLSASVGDRVTITCRASQEISGYLSWLQQKPGKAPKRLIYAASTLDSGVPSRFSGSRSGTEYTLTISSLQPEDFATYYCLQYASYPLTFGGGTKVEIKR
notes: expressed in Expi293F cells; also called humanized antibody of antibody A; HK2-42 / L1-8
IC50 [1]: ~4.9 nM
IC50 [2]: ~8.7 nM
IC50 [3]: ~1.6 nM
IC50 [4]: ~4.2 nM

B2: mouse anti-EphA4 monoclonal antibody (antibody A) (antibody, mouse IgG1, kappa, V domains shown)
VH: QVQLKQSGPSLVQPSQSLSITCTVSGFSLTRYGVHWVRQSPGKGLEWLGVIWRGGSTDYNAAFMSRLSITKDNSKSQVFFKMNSLQADDTAIYYCAKESLFGVYYDYGYYSMDYWGQGTSVTVSS
VL: DIQMTQSPSSLSASLGERVSLTCRASQEISGYLSWLQQKPDGTIKRLIYAASTLDSGVPKRFSGSRSGSDYSLTISSLESEDFADYYCLQYASYPLTFGAGTKLELKR
notes: purified from hybridoma supernatant
IC50 [1]: ~2.8 nM
IC50 [2]: ~5.9 nM
IC50 [3]: ~1.4 nM
IC50 [4]: ~3.1 nM
